Source: doi:10.1101/2021.06.17.448874
“And” between values parts separate entries of the source, which are not always exact repeats. Equal values may be shown once.

Tests used:
[1] = target: microtubules polymerised from porcine brain tubulin, taxol-stabilised (porcine) (UniProt P02550); experiment: co-sedimentation
[2] = target: subtilisin-digested microtubules (lacking E-hooks) (porcine) (UniProt P02550); experiment: co-sedimentation

In the case of “MBP-MESP-1 (meiotic spindle 1) (natural protein)”, the shift to pellet (%) [1] was 56.1% and 41.6%.
With “KLP-18 C-stalk (C-terminal half of the KLP-18 stalk) (domain or fragment)” the shift to pellet (%) [1] was 52.7% and 50.8% and the shift to pellet (%) [2] was 26.7%.
